For one assay, the target named is T1, cyno CDH3 (cyno).
T1 construct: whole, on cells; On transfected CHO cells; also called cy CDH3
The experiment in a line: cell-based affinity, flow cytometry on target-transfected CHO cells, nonlinear regression (one site - specific binding), mean of three measurements. How it is done:
(§1) Cell-based affinity of CDH3 MSLN dual targeting antigen-binding molecules was determined by nonlinear regression (one site—specific binding) analysis. CHO cells expressing human CDH3, cyno CDH3, human MSLN or cyno MSLN were incubated with decreasing concentrations of CDH3 MSLN dual targeting antigen-binding molecules (12.5 nM on CDH3 cell lines, 800 nM on MSLN cell lines, step 1:2, 11 steps) for 16 h at 4° ° C. Bound CDH3 MSLN dual targeting antigen-binding molecules were detected with Alexa Fluor 488-conjugated AffiniPure Fab Fragment Goat Anti-Human IgG (H+L). Fixed cells were stained with DRAQ5, Far-Red Fluorescent Live-Cell Permeant DNA Dye and signals were detected by fluorescence cytometry. Respective equilibrium dissociation constant (Kd) values were calculated with the one site—specific binding evaluation tool of the GraphPad Prism software. Mean Kd values and affinity gaps were calculated with Microsoft Excel.
(§2) Cell-based affinities of CDH3 MSLN dual targeting antigen-binding molecules on target-transfected CHO cells were determined by nonlinear regression (one site - specific binding) analysis. Mean Kd values were calculated from three independent measurements. Affinity gaps were determined by dividing the cyno Kd by the human Kd.
On the technique in general: In flow cytometry, cells or beads pass a laser one at a time.

Another assay addresses T2, cyno MSLN (cyno).
T2 construct: whole, on cells; On transfected CHO cells; also called cy MSLN
The description is as above. How it is done: as §1, §2

The target in assay [1] is T3, human CDH3 (human, UniProt P22223 108-829).
T3 construct: also called hu CDH3; Cadherin-3
The description is as above. How it is done:
as §1, §2

Assay [2] concerns the target T3, human CDH3. The assay can be described thus: cell-based or functional assay.
Assay [3] concerns the target T3, human CDH3. The experiment in a line: cell-based or functional assay. This is another data set of the same source.
A further assay concerns the target human MSLN (mesothelin) (human, UniProt Q13421 37-598). The assay can be described thus: cell-based or functional assay.
In assay [4] the target is human CDH3 (Cadherin-3, P-Cadherin) (human, UniProt P22223 108-829). The experiment in a line: cell-based or functional assay.

B1: CH3 15-E11 CC × I2L × G4 × scFc × G4 × MS 15-B12 CC × I2L_GQ (bispecific antibody)
chain: QVQLVQSGAEVKKPGASVKVSCKASGYTFTNYWMNWVRQAPGQCLEWMGNIAYGVKGTNYNQKFQGRVTMTVDTSSSTAYMELSRLRSDDTAVYYCATRYFYVMDYWGQGTLVTVSSGGGGQGGGGQGGGGQDIQMTQSPSSLSASVGDRVTITCRASQDISNYLNWYQQKPGKVPKLLIYYTSRLHSGVPSRFSGSGSGTDFTLTISSLQPEDVATYYCVQYAQFPLTFGCGTKVEIKSGGGGQEVQLVESGGGLVQPGGSLKLSCAASGFTFNKYAMNWVRQAPGKGMEWVARIRSKYNNYATYYADAVKDRFTISRDDSKNTLYLQMNNLKTEDTAVYYCVRAGNFGSSYISYFAYWGQGTLVTVSSGGGGQGGGGQGGGGQQTVVTQEPSLTVSPGGTVTITCGSSTGAVTSGNYPNWIQKKPGQAPRGLIGGTKFLAPGTPARFSGSLEGGKAALTLSGVQPEDEAEYYCVLYYSNRWVFGSGTKLTVLGGGGCPPCPAPELLGGPSVFLFPPKPKDTLMISRTPEVTCVVVDVSHEEPEVKFNWYVDGVEVHNAKTKPCEEQYGSTYRCVSVLTVLHQDWLNGKEYKCKVSNKALPAPIEKTISKAKGQPREPQVYTLPPSREEMTKNQVSLTCLVKGFYPSDIAVEWESNGQPENNYKTTPPVLDSDGSFFLYSKLTVDKSRWQQGNVFSCSVMHEALHNHYTQKSLSLSPGKGGGGQGGGGQGGGGQGGGGQGGGGQGGGGQCPPCPAPELLGGPSVFLFPPKPKDTLMISRTPEVTCVVVDVSHEEPEVKFNWYVDGVEVHNAKTKPCEEQYGSTYRCVSVLTVLHQDWLNGKEYKCKVSNKALPAPIEKTISKAKGQPREPQVYTLPPSREEMTKNQVSLTCLVKGFYPSDIAVEWESNGQPENNYKTTPPVLDSDGSFFLYSKLTVDKSRWQQGNVFSCSVMHEALHNHYTQKSLSLSPGKGGGGQVQLQESGPGLVKPSETLSLTCTVSGGSISSSSYFWGWIRQPPGKCLEWIGNIYYSGSSNYNPSLKSRVTISVDTSKNQFSLKLSSVTAADTAVYYCARLPRGDRDAFDIWGQGTMVTVSSGGGGQGGGGQGGGGQDIVMTQSPSSLSASVGDRVTITCRASQGISNYLAWYQQKPGKVPKLLIYAASTLQSGVPSRFSGSGSGTDFTLTISSLQPEDFATYYCQQSYSTPFTFGCGTKVEIKSGGGGQEVQLVESGGGLVQPGGSLKLSCAASGFTFNKYAMNWVRQAPGKGMEWVARIRSKYNNYATYYADAVKDRFTISRDDSKNTLYLQMNNLKTEDTAVYYCVRAGNFGSSYISYFAYWGQGTLVTVSSGGGGQGGGGQGGGGQQTVVTQEPSLTVSPGGTVTITCGSSTGAVTSGNYPNWIQKKPGQAPRGLIGGTKFLAPGTPARFSGSLEGGKAALTLSGVQPEDEAEYYCVLYYSNRWVFGSGTKLTVL
notes: Single chain: CDH3 scFv - CD3 scFv (I2L) - scFc - MSLN scFv - CD3 scFv (I2L)
For orientation: Kd means a measure of binding affinity in units of concentration. Take B1: the affinity with cyno CDH3, expressed as Kd, was 190 pM. Further, the Kd with cyno MSLN was 51400 pM. Besides, the Kd with human CDH3 [1] worked out at 160 pM. Besides, in the assay with human CDH3 [2], the “EC50 (cytotoxicity) on double positive cells; column head printed 'EC50 CHO hu CDH3 (+) & MSLN (+)'; value is that of HCT 116 wt in Table 46” value worked out at 0.071 pM; the “EC50 (cytotoxicity); column head printed 'EC50 CHO hu MSLN (+)', table title HCT 116; value is that of HCT 116 KO MSLN in Table 46” value is 8.7 pM; the “fold gap of column 2 (HCT 116 KO MSLN by Table 46) against double positive cells” value was 122 fold. In the assay with human CDH3 [3], the “EC50 on HCT 116 KO MSLN (cytotoxicity; cells CDH3+, MSLN-)” value came to 8.7 pM and the “EC50 on HCT 116 wt (cytotoxicity; cells CDH3+, MSLN+)” value was 0.07 pM.

B2: CH3 15-E11_1_VAG_CC × I2L × G4 × scFc × G4 × MS 15-B12 CC × I2L clipopt_DI (bispecific antibody)
chain: QVQLVQSGAEVKKPGASVKVSCKASGYTFTNYWMNWVRQAPGQCLEWMGNIAYGVAGTNYNQKFQGRVTMTVDTSSSTAYMELSRLRSDDTAVYYCATRYFYVMDYWGQGTLVTVSSGGGGQGGGGQGGGGQDIQMTQSPSSLSASVGDRVTITCRASQDISNYLNWYQQKPGKVPKLLIYYTSRLHSGVPSRFSGSGSGTDFTLTISSLQPEDVATYYCVQYAQFPLTFGCGTKVEIKSGGGGQEVQLVESGGGLVQPGGSLKLSCAASGFTFNKYAMNWVRQAPGKGMEWVARIRSKYNNYATYYADAVKDRFTISRDDSKNTLYLQMNNLKTEDTAVYYCVRAGNFGSSYISYFAYWGQGTLVTVSSGGGGQGGGGQGGGGQQTVVTQEPSLTVSPGGTVTITCGSSTGAVTSGNYPNWIQKKPGQAPRGLIGGTKFLAPGTPARFSGSLEGGKAALTLSGVQPEDEAEYYCVLYYSNRWVFGSGTKLTVLGGGGCPPCPAPELLGGPSVFLFPPKPKDTLMISRTPEVTCVVVDVSHEEPEVKFNWYVDGVEVHNAKTKPCEEQYGSTYRCVSVLTVLHQDWLNGKEYKCKVSNKALPAPIEKTISKAKGQPREPQVYTLPPSREEMTKNQVSLTCLVKGFYPSDIAVEWESNGQPENNYKTTPPVLDSDGSFFLYSKLTVDKSRWQQGNVFSCSVMHEALHNHYTQKSLSLSPGKGGGGQGGGGQGGGGQGGGGQGGGGQGGGGQCPPCPAPELLGGPSVFLFPPKPKDTLMISRTPEVTCVVVDVSHEEPEVKFNWYVDGVEVHNAKTKPCEEQYGSTYRCVSVLTVLHQDWLNGKEYKCKVSNKALPAPIEKTISKAKGQPREPQVYTLPPSREEMTKNQVSLTCLVKGFYPSDIAVEWESNGQPENNYKTTPPVLDSDGSFFLYSKLTVDKSRWQQGNVFSCSVMHEALHNHYTQKSLSLSPGKGGGGQVQLQESGPGLVKPSETLSLTCTVSGGSISSSSYFWGWIRQPPGKCLEWIGNIYYSGSSNYNPSLKSRVTISVDTSKNQFSLKLSSVTAADTAVYYCARLPRGDRDAFDIWGQGTMVTVSSGGGGQGGGGQGGGGQDIVMTQSPSSLSASVGDRVTITCRASQGISNYLAWYQQKPGKVPKLLIYAASTLQSGVPSRFSGSGSGTDFTLTISSLQPEDFATYYCQQSYSTPFTFGCGTKVEIKSGGGGQEVQLVESGGGLVQPGGSLKLSCAASGFTFNKYAMNWVRQAPGKGMEWVARIRSKYNNYATYYADAVKDRFTISRDDSKNTLYLQMNNLKTEDTAVYYCVRAGNFGSSYISYFAYWGQGTLVTVSSGGGGQGGGGQGGGGQQTVVTQEPSLTVSPGGTVTITCGSSTGAVTSGNYPNWIQKKPGQAPRGLIGGTKFLAPGTPARFSGSLEGGKAALTLSGVQPEDEAEYYCVLYYSNRWVFGSGTKLTVL
notes: Single chain
For the molecule B2, the Kd in the assay with cyno CDH3 is 570 pM; with cyno MSLN, 50300 pM; with human CDH3 [1] it was 510 pM.

B3: MS 15-B12 CC × 6H10.09 × (G4) × heFc (A) * heFc (B) × (G4) × CH3 15-E11 CC × 6H10.09 (bispecific antibody)
chain 1: not shown
chain 2: DKTHTCPPCPAPELLGGPSVFLFPPKPKDTLMISRTPEVTCVVVDVSHEDPEVKFNWYVDGVEVHNAKTKPCEEQYGSTYRCVSVLTVLHQDWLNGKEYKCKVSNKALPAPIEKTISKAKGQPREPQVYTLPPSRKEMTKNQVSLTCLVKGFYPSDIAVEWESNGQPENNYKTTPPVLKSDGSFFLYSKLTVDKSRWQQGNVFSCSVMHEALHNHYTQKSLSLSPGKGGGGQVQLVQSGAEVKKPGASVKVSCKASGYTFTNYWMNWVRQAPGQCLEWMGNIAYGVKGTNYNQKFQGRVTMTVDTSSSTAYMELSRLRSDDTAVYYCATRYFYVMDYWGQGTLVTVSSGGGGSGGGGSGGGGSDIQMTQSPSSLSASVGDRVTITCRASQDISNYLNWYQQKPGKVPKLLIYYTSRLHSGVPSRFSGSGSGTDFTLTISSLQPEDVATYYCVQYAQFPLTFGCGTKVEIKSGGGGSEVQLVESGGGLVQPGGSLKLSCAASGFTFNKYAMNWVRQAPGKGMEWVARIRSKYNNYATYYADAVKDRFTISRDDSKNTLYLQMNNLKTEDTAVYYCVRAGNFGSSYISYFAYWGQGTLVTVSSGGGGSGGGGSGGGGSQTVVTQEPSLTVSPGGTVTITCGSSTGAVTSGNYPNWIQKKPGQAPRGLIGGTKFLAPGTPARFSGSLEGGKAALTLSGVQPEDEAEYYCVLYYSNRWVFGSGTKLTVL
Regarding B3, in the assay with human MSLN (mesothelin), the “cytotoxicity EC50, GSU KO CDH3 cells” value was 391 pM. In assay [4], the “cytotoxicity EC50, GSU KO MSLN cells” value came to 533 pM.

The record behind these values is patent US20240209078A1 (Amgen, published 2024).
